For the experiment, the system named is Ramos cells. Put plainly: Ramos tumor model in nude mice. The class given is in vivo. The following applies: 200 μg i.v. on days 0, 2, 4, 6 and 8; Ramos cells s.c. The procedure: Nude mice are administered 5×10^6 Ramos cells subcutaneously on day 0 and injected intravenously with 200 μg control human IgG or TRU-016 test protein produced by CHO cells treated with 200 μM DMJ, 10 μM kifenunsine or 200 μM castanospermine on days 0, 2, 4, 6, and 8. Mice typically develop tumors within 6 days and die shortly thereafter. Tumors are measured three times weekly with digital calipers and LabCat software, and tumor volume is calculated as […]. Body weight is also determined once a week.
Mice are sacrificed when the tumor reaches 1500 mm^3 in size (1200 mm^3 on Fridays). Mice are also sacrificed if ulceration of a tumor occurs, the tumor inhibits the mobility of animal, or if weight loss equals or exceeds 20%.

B1: Kifu TRU-016: TRU-016 produced by CHO cells treated with 10 μM kifenunsine (antibody, chains of the INN, looked up, V domains shown)
VH: EVQLVQSGAEVKKPGESLKISCKGSGYSFTGYNMNWVRQMPGKGLEWMGNIDPYYGGTTYNRKFKGQVTISADKSISTAYLQWSSLKASDTAMYYCARSVGPFDSWGQGTLVTVSS
VL: EIVLTQSPATLSLSPGERATLSCRASENVYSYLAWYQQKPGQAPRLLIYFAKTLAEGIPARFSGSGSGTDFTLTISSLEPEDFAVYYCQHHSDNPWTFGQGTKVEIK
modifications: altered glycosylation (kifunensine-treated CHO)
notes: TRU-016 produced by CHO cells treated with 10 μM kifenunsine
Consider B1, for which the “Median Survival Time” value was found to be 10 days.

Source of the values: US20100150948A1, “MATERIALS AND METHODS FOR IMPROVED IMMUNOGLYCOPROTEINS” (TRUBION PHARMACEUTICALS, INC., priority 2006, published 2010).
